{"source": "the supplement of paper PMC10899765"}
{"test_system": "MCF10A", "experiment": "5+ nucleoli phenotype percent effect (relative to siNT 0% and siKIF11 100%); higher = more cells with five or more nucleoli", "conditions": "20 nM; 72 h", "description": "(§1)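 After 72 h, cells were fixed and stained with Hoechst and anti-fibrillarin, and nucleoli per nucleus were counted with CellProfiler. Values are plate-adjusted percent effect for the one-nucleolus and 5+ nucleoli phenotypes, normalised to siNT (0%) and to the positive controls siNOL11 or siKIF11 (100%), as the mean of biological triplicates. Percent viability is the nuclei count relative to siNT.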", "units": {"5+ nucleoli phenotype percent effect": "%"}}
{"sequence": "ACUGGACUUGGAGCCAGAAG [hsa-miR-378f]", "5+ nucleoli phenotype percent effect": 33.7}
{"sequence": "UUGCCUGCCCUCUUCCUCCAG [hsa-miR-6894-3p]", "5+ nucleoli phenotype percent effect": -20.1}
{"sequence": "GGGGGGGCAGGAGGGGCUCAGGG [hsa-miR-328-5p]", "5+ nucleoli phenotype percent effect": 33.9}
{"sequence": "UGAGAACUGAAUUCCAUGGGUU [hsa-miR-146a-5p]", "5+ nucleoli phenotype percent effect": -31.6}
{"sequence": "CUCAAACCGGCUGUGCCUGUGG [hsa-miR-6715b-3p]", "5+ nucleoli phenotype percent effect": -11.8}
{"sequence": "UCAGCAAACAUUUAUUGUGUGC [hsa-miR-545-3p]", "5+ nucleoli phenotype percent effect": 27.8}
{"sequence": "UGAGGGGCCUCAGACCGAGCUUUU [hsa-miR-3184-5p]", "5+ nucleoli phenotype percent effect": 38.7}
{"sequence": "AAGGUUUGGAUAGAUGCAAUA [hsa-miR-4464]", "5+ nucleoli phenotype percent effect": -24.5}
{"sequence": "UAUGGAGUGGACUUUCAGCUGGC [hsa-miR-6514-5p]", "5+ nucleoli phenotype percent effect": 38.3}
{"sequence": "AUAGUCCGAGUAACGUCGGGGC [hsa-miR-6723-5p]", "5+ nucleoli phenotype percent effect": -28.9}
{"sequence": "GAGAGCAGUGUGUGUUGCCUGG [hsa-miR-2278]", "5+ nucleoli phenotype percent effect": -44.7}
{"sequence": "UCACCUGACCUCCCAUGCCUGU [hsa-miR-3622a-3p]", "5+ nucleoli phenotype percent effect": 33.1}
{"sequence": "UGUGGGAUCUGGAGGCAUCUGG [hsa-miR-4654]", "5+ nucleoli phenotype percent effect": -29.4}
{"sequence": "UGGGCUGCUGAGAAGGGGCA [hsa-miR-6829-5p]", "5+ nucleoli phenotype percent effect": 2.03}
{"sequence": "AGGUCUGCAUUCAAAUCCCCAGA [hsa-miR-6503-5p]", "5+ nucleoli phenotype percent effect": 10.7}
{"sequence": "CAGGACUUGACGGCUGCAACU [hsa-miR-8083]", "5+ nucleoli phenotype percent effect": 22.5}
{"sequence": "UGCGGCCGGUGCUCAACCUGC [hsa-miR-1199-3p]", "5+ nucleoli phenotype percent effect": -6.68}
{"sequence": "UCAGCUCCUCUCUACCCACAG [hsa-miR-6736-3p]", "5+ nucleoli phenotype percent effect": -12.2}
{"sequence": "AAGCUCAGGUUUGAGAACUGCUGA [hsa-miR-6854-5p]", "5+ nucleoli phenotype percent effect": -24.5}
{"sequence": "ACGGGGAGUCAGGCAGUGGUGGA [hsa-miR-6777-5p]", "5+ nucleoli phenotype percent effect": -32.1}
{"sequence": "GAGCCAGUGGUGAGACAGUGA [hsa-miR-4676-5p]", "5+ nucleoli phenotype percent effect": -5.34}
{"sequence": "GGAGGUUGGGAAGGGCAGAG [hsa-miR-6086]", "5+ nucleoli phenotype percent effect": 0.449}
{"sequence": "GAUGAUGCUGCUGAUGCUG [hsa-miR-1322]", "5+ nucleoli phenotype percent effect": -20.7}
{"sequence": "AACCACUUUCUUUGCUCAUCCA [hsa-miR-1255b-2-3p]", "5+ nucleoli phenotype percent effect": -17.2}
{"test_system": "MCF10A", "experiment": "one-nucleolus phenotype percent effect (relative to siNT 0% and siNOL11 100%); higher = more cells with one nucleolus (ribosome biogenesis inhibition)", "conditions": "20 nM; 72 h", "description": "as §1", "units": {"one-nucleolus phenotype percent effect": "%"}}
{"sequence": "ACUGGACUUGGAGCCAGAAG [hsa-miR-378f]", "one-nucleolus phenotype percent effect": -12.4}
{"sequence": "UUGCCUGCCCUCUUCCUCCAG [hsa-miR-6894-3p]", "one-nucleolus phenotype percent effect": 22.3}
{"sequence": "GGGGGGGCAGGAGGGGCUCAGGG [hsa-miR-328-5p]", "one-nucleolus phenotype percent effect": -28.4}
{"sequence": "UGAGAACUGAAUUCCAUGGGUU [hsa-miR-146a-5p]", "one-nucleolus phenotype percent effect": 9.23}
{"sequence": "CUCAAACCGGCUGUGCCUGUGG [hsa-miR-6715b-3p]", "one-nucleolus phenotype percent effect": 10}
{"sequence": "UCAGCAAACAUUUAUUGUGUGC [hsa-miR-545-3p]", "one-nucleolus phenotype percent effect": -21.8}
{"sequence": "UGAGGGGCCUCAGACCGAGCUUUU [hsa-miR-3184-5p]", "one-nucleolus phenotype percent effect": 5.35}
{"sequence": "AAGGUUUGGAUAGAUGCAAUA [hsa-miR-4464]", "one-nucleolus phenotype percent effect": 6.58}
{"sequence": "UAUGGAGUGGACUUUCAGCUGGC [hsa-miR-6514-5p]", "one-nucleolus phenotype percent effect": -0.808}
{"sequence": "AUAGUCCGAGUAACGUCGGGGC [hsa-miR-6723-5p]", "one-nucleolus phenotype percent effect": 16.5}
{"sequence": "GAGAGCAGUGUGUGUUGCCUGG [hsa-miR-2278]", "one-nucleolus phenotype percent effect": 40.5}
{"sequence": "UCACCUGACCUCCCAUGCCUGU [hsa-miR-3622a-3p]", "one-nucleolus phenotype percent effect": -15.8}
{"sequence": "UGUGGGAUCUGGAGGCAUCUGG [hsa-miR-4654]", "one-nucleolus phenotype percent effect": 6.3}
{"sequence": "UGGGCUGCUGAGAAGGGGCA [hsa-miR-6829-5p]", "one-nucleolus phenotype percent effect": 37.7}
{"sequence": "AGGUCUGCAUUCAAAUCCCCAGA [hsa-miR-6503-5p]", "one-nucleolus phenotype percent effect": 3.05}
{"sequence": "CAGGACUUGACGGCUGCAACU [hsa-miR-8083]", "one-nucleolus phenotype percent effect": -1.33}
{"sequence": "UGCGGCCGGUGCUCAACCUGC [hsa-miR-1199-3p]", "one-nucleolus phenotype percent effect": 23.8}
{"sequence": "UCAGCUCCUCUCUACCCACAG [hsa-miR-6736-3p]", "one-nucleolus phenotype percent effect": 8.25}
{"sequence": "AAGCUCAGGUUUGAGAACUGCUGA [hsa-miR-6854-5p]", "one-nucleolus phenotype percent effect": 18.3}
{"sequence": "ACGGGGAGUCAGGCAGUGGUGGA [hsa-miR-6777-5p]", "one-nucleolus phenotype percent effect": 32}
{"sequence": "GAGCCAGUGGUGAGACAGUGA [hsa-miR-4676-5p]", "one-nucleolus phenotype percent effect": -15.1}
{"sequence": "GGAGGUUGGGAAGGGCAGAG [hsa-miR-6086]", "one-nucleolus phenotype percent effect": -8.13}
{"sequence": "GAUGAUGCUGCUGAUGCUG [hsa-miR-1322]", "one-nucleolus phenotype percent effect": 24.5}
{"sequence": "AACCACUUUCUUUGCUCAUCCA [hsa-miR-1255b-2-3p]", "one-nucleolus phenotype percent effect": 7.09}
{"test_system": "MCF10A", "experiment": "percent viability (nuclei count relative to siNT); higher = more viable cells", "conditions": "20 nM; 72 h", "description": "as §1", "units": {"percent viability": "%"}}
{"sequence": "ACUGGACUUGGAGCCAGAAG [hsa-miR-378f]", "percent viability": 45.3}
{"sequence": "UUGCCUGCCCUCUUCCUCCAG [hsa-miR-6894-3p]", "percent viability": 24.2}
{"sequence": "GGGGGGGCAGGAGGGGCUCAGGG [hsa-miR-328-5p]", "percent viability": 129}
{"sequence": "UGAGAACUGAAUUCCAUGGGUU [hsa-miR-146a-5p]", "percent viability": 51.1}
{"sequence": "CUCAAACCGGCUGUGCCUGUGG [hsa-miR-6715b-3p]", "percent viability": 62.7}
{"sequence": "UCAGCAAACAUUUAUUGUGUGC [hsa-miR-545-3p]", "percent viability": 124}
{"sequence": "UGAGGGGCCUCAGACCGAGCUUUU [hsa-miR-3184-5p]", "percent viability": 31.2}
{"sequence": "AAGGUUUGGAUAGAUGCAAUA [hsa-miR-4464]", "percent viability": 29.7}
{"sequence": "UAUGGAGUGGACUUUCAGCUGGC [hsa-miR-6514-5p]", "percent viability": 75}
{"sequence": "AUAGUCCGAGUAACGUCGGGGC [hsa-miR-6723-5p]", "percent viability": 54}
{"sequence": "GAGAGCAGUGUGUGUUGCCUGG [hsa-miR-2278]", "percent viability": 30.7}
{"sequence": "UCACCUGACCUCCCAUGCCUGU [hsa-miR-3622a-3p]", "percent viability": 103}
{"sequence": "UGUGGGAUCUGGAGGCAUCUGG [hsa-miR-4654]", "percent viability": 38.8}
{"sequence": "UGGGCUGCUGAGAAGGGGCA [hsa-miR-6829-5p]", "percent viability": 7.58}
{"sequence": "AGGUCUGCAUUCAAAUCCCCAGA [hsa-miR-6503-5p]", "percent viability": 43.4}
{"sequence": "CAGGACUUGACGGCUGCAACU [hsa-miR-8083]", "percent viability": 71}
{"sequence": "UGCGGCCGGUGCUCAACCUGC [hsa-miR-1199-3p]", "percent viability": 22.1}
{"sequence": "UCAGCUCCUCUCUACCCACAG [hsa-miR-6736-3p]", "percent viability": 37.4}
{"sequence": "AAGCUCAGGUUUGAGAACUGCUGA [hsa-miR-6854-5p]", "percent viability": 57.3}
{"sequence": "ACGGGGAGUCAGGCAGUGGUGGA [hsa-miR-6777-5p]", "percent viability": 28.5}
{"sequence": "GAGCCAGUGGUGAGACAGUGA [hsa-miR-4676-5p]", "percent viability": 53.3}
{"sequence": "GGAGGUUGGGAAGGGCAGAG [hsa-miR-6086]", "percent viability": 69.1}
{"sequence": "GAUGAUGCUGCUGAUGCUG [hsa-miR-1322]", "percent viability": 41.1}
{"sequence": "AACCACUUUCUUUGCUCAUCCA [hsa-miR-1255b-2-3p]", "percent viability": 32.1}
